Laboratory results: article PMC6504561

Legend:
DYNLT1 (Mus musculus) = DYNLT1 (Mus musculus) (UniProt P51807); experiment: NMR; conditions: cited from earlier work
[1] = target: FITC-labelled ARHGEF2 peptide 876-891 phosphorylated on Ser885 (not stated (human or mouse cDNA cloned)); experiment: MST
[2] = target: FITC-labelled ARHGEF2 peptide 142-157 phosphorylated on Ser151 (not stated (human or mouse cDNA cloned)); experiment: MST

Chain of ARHGEF2 peptide 133-161 (Q60875 133-161): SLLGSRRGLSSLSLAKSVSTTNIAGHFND
Chain of DYNLT1 (Mus musculus) (P51807 whole entry): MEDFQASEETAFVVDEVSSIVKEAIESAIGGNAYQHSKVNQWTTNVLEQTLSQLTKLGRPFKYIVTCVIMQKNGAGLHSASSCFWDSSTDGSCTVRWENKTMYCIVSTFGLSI

Substance | Kd (DYNLT1 (Mus musculus)) [µM] | Kd [1] [µM] | Kd [2] [µM]
ARHGEF2 peptide 133-161 (from UniProt Q60875) | 80 |  | 
GST-14-3-3 (from UniProt P63101 1-245) (natural protein) |  | 2.3 | 11.6
